The nanobody polyreactivity screen of Harvey et al. (2022)

Assay: yeast display, Sf9 membrane polyspecificity reagent, FACS + sequencing; frameworks hold sequencing errors
In short: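 Using colony PCR, genes from sorted yeast display clones were amplified, then sequenced on MiSeq at 2 × 250 and filtered by CDR length. The clones had been stained with 10% biotinylated, detergent-solubilized Sf9 membrane reagent for 1 hour at 4 °C and sorted by FACS into low and high (top ~1%) gates on anti-HA and streptavidin fluorescence. Polyreactivity labels come from the gate of origin.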

| Sequence | polyreactivity (PSR sort gate) |
| --- | --- |
| QVQLVESGGGLVQAGGSLRLSCAASGYIFNYNAMGWYRQAPGKERELVAVIRVSVGSTYYADSVKGRFTISRDNAKNTVYLQMNSLKPEDTAVYYCAADRGARGDYWGQGTQVTVSS | high polyreactivity |
| QVQLVESGGGLVQAGGSLRLSCAASGYIFPAYGMGWYIQAPGKERELVAAISWSTGSTYYADSVKGRFTISRDNAKNTVYLQMNSLKPEDTAVYYCDAGRPRRVPDHWYIYYYWGQATQVTVSS | low polyreactivity |
| QVQLVESGGGLVQAGGSLRLSCAASGYIFPPYAMGWYRQAPGKERELVATITGIGGSTYYADSVKGRFTISRDNAKNTVYLQMNSLKPEDTAVYYCAARRDGYGTHYDYWGQGTQVTVSS | low polyreactivity |
| QVQLVESGGGLVQAGGSLRLSCAASGYIFPYYTMGWYRQAPGKERELVAAITIGGSTYYADSVKGRFTISRDNAKNTVYFQMNSLKPVDTAVYYCAARSRYYDTRFDYWGQGTQVTVSS | low polyreactivity |
| QVQLVESGGGLVQAGGSLRLSCAASGYIFQYNAMGWYRQAPGKERELVAAISRGGRTNYADSVKGRFTISRDNAKNTVYLQMNSLNPEDTAVYFCAAKRPWGYYPWSTQTGDYWGQGTQVTVSS | high polyreactivity |
| QVQLVESGGGLVQAGGSLRLSCAASGYIFRFYTMGWYRQAPGKERELVASITRSGGSTYYADSVKGRFTISRDNAKNTVYLQMNSLKPEDTAVYYCNARKTVGMDYWGQGTQVTVSS | low polyreactivity |
| QVQLVESGGGLVQAGGSLRLSCAASGYIFRSYAMGWYRQAPGKERELVATISWIGGGTSYADSVKGRFTISRDNAKNTVYLHMNSLIPVDTAVYYCAAGPWAYGRRHAYYSRSFDYWGQGTQVTVSS | high polyreactivity |
| QVQLVESGGGLVQAGGSLRLSCAASGYIFRSYAMGWYRQAPGKERELVATISWIGGGTSYADSVKGRFTISRDNAKNTVYLQMNSLKPEDTAVYYCAAGPWAYGRRHAYYSRSFDYWGQGTQVTVSS | high polyreactivity |
| QVQLVESGGGLVQAGGSLRLSCAASGYIFRVYAMGWYTPAPGKERELVAAISGSGGRTYYADSVKGRFKFSLDIAKNTVYLKMNSLKREDTAVYYCAATLYYYVGVRYDYWGQGSQVTVSS | high polyreactivity |
| QVQLVESGGGLVQAGGSLRLSCAASGYIFRYNEMGWYRQAPGKERALVAAIRATGGSTYYADSVKGRFTISRDNAKNTVYLQMNSLKPEDTAVYYCNAGGQGRTYRYYYWGQGTQVTVSS | high polyreactivity |
| QVQLVESGGGLVQAGGSLRLSCAASGYIFRYYAMGWYRQAPGKERELVAVISSTGTSTYYADSVKGRFTISRDNAKNTVYLQMNSLKPEDTAVYYCAVKGYFSYWRYQSDYWGQGTQVTVSS | high polyreactivity |
| QVQLVESGGGLVQAGGSLRLSCAASGYIFRYYVMGWYRQEPGKERELVAAITFSGGNTYYADSVKGRFTISRDNAKITVYLQMNSLKPEDTAVYYCAADVLYVGGSDYDYWVQGTQVTVSS | low polyreactivity |
| QVQLVESGGGLVQAGGSLRLSCAASGYIFSAYAMGWSRQAPGKERELVAVITSGGGTYYADSVKGRFTISRDNAKNTVYLLMNSLKTEDTAVYYCAAGPLCPYASRYGYWGQGTQVTVSS | high polyreactivity |
| QVQLVESGGGLVQAGGSLRLSCAASGYIFSDNTMGWYRPAPGKERELVAVITSGTSTSYADSVKGRFTISRDNAKNTVYLQMNSLKPEDTAVYDCARESVTYFWYYTPEVDYWGQGTQVTVSS | low polyreactivity |
| QVQLVESGGGLVQAGGSLRLSCAASGYIFSGYARGWYRKAPGKERELVAAISSNGGSTYYADSVKGRFTISRDNANNTVYVQMNSLKPEDTAVYYCNRGLAARVGRGDYWGQGTQVTVSS | low polyreactivity |
| QVQLVESGGGLVQAGGSLRLSCAASGYIFSRYAMGWYRQAPGKERELVAAITRSGTRTYYADSVKGRFTISRDNAKNTVYLQMNSLKPEDTAVYYCAKEYLYSSGFDYWGQGTQVTVSS | high polyreactivity |

| Sequence | polyreactivity (PSR sort gate) |
| --- | --- |
| QVQLVESGGGLVQAGGSLRLSCAASGYIFTSYATMGWYRQAPGKERELVATISSGGSTNYADSVKGRVTISRDNAKNTVYLQMNSLKPEDTAVYYCYADRFYTYWGYSWVYPSGSWGQGTQVTVSS | low polyreactivity |
| QVQLVESGGGLVQAGGSLRLSCAASGYIFTYYAMGWYRQAPGKERELVAAISRGGSTYYADSVKGRFTISRDNAKYTVYLQMNSLKPEDTAVYYCNARPRWPWVVNFGYYYWGQGTQVTVSS | low polyreactivity |
| QVQLVESGGGLVQAGGSLRLSCAASGYIFVNAMGWYRQAPGKERELVAAISSGRSTHYADSVKGRFTISLDNAKNTVYLQLNSLKPEDTAVYYCNADLYSWYWAGYNYWGQGTQVTVSS | high polyreactivity |
| QVQLVESGGGLVQAGGSLRLSCAASGYIFVRNAMGWSRQAPGKERELVAAISRTDGTTYYADSVKGRFTISRDNAKNTVYLQMNSLIPEDTAVYYCAADYLRAPYYQYEYWGQGTQVTVSS | low polyreactivity |
| QVQLVESGGGLVQAGGSLRLSCAASGYIFVVNAMGWYRQAPGKERELVAAIDWGGGSTYADSVKGRFTISRDNAKNTVYLQMNSLKPEDTAVYYCAADLWPYPNDYWGQGTQVTVSS | low polyreactivity |
| QVQLVESGGGLVQAGGSLRLSCAASGYIFWFNAMGWYRQAPGKERELVAAITSSDASTNYADSVKGRFTISRDNAKNTVYLQMNSLKPEDTAVYYCAKSSYPRDGYESWGQGTQVTVSS | low polyreactivity |
| QVQLVESGGGLVQAGGSLRLSCAASGYIFWINAMGWYRHAPGKERDLVAAIRYSTGRTYYADSVKGRFTISRDNAKNTVYLQMNSLKPEDTAVYYCNARSWYIRGSQEYYYWGQGTQVTVSS | high polyreactivity |
| QVQLVESGGGLVQAGGSLRLSCAASGYIFYAYAMGWYRQAPGKERELVAAISSGGGRTYYADSVKGRFTISRDNAKNTVYLQMNSLKPEDTAVYYCAARRRDRGEYYYWGQGTQVTVSS | high polyreactivity |
| QVQLVESGGGLVQAGGSLRLSCAASGYIFYDYAMGWYRQAPGKERELVAAIRRSTGTTYYADSVKGRFTISRDNAKNTVYLQMNSLKPEDTAFYYCAALFRPRVHRYDYWGQGTQVTVSS | low polyreactivity |
| QVQLVESGGGLVQAGGSLRLSCAASGYIFYFNAMGWYRQAPGKERELVAAISSRGTGTYADSVKGRFTISRDNAKNTVYLQMNSLKPEDTAVYYCNAYPSIYPGFYKTFFNMDYWGQGTQVTVSS | low polyreactivity |
| QVQLVESGGGLVQAGGSLRLSCAASGYIFYFNAMGWYRQAPGKERELVAVISDRDDSTYYADSVKGRFTISRDNAKNTVYLQMNSLKPEDTAVYYCAADGDTYVDDPYDYWGQGTQVTVSS | low polyreactivity |
| QVQLVESGGGLVQAGGSLRLSCAASGYIFYGYAMGWYRQAPGKERELVAAITGDGASTNYADSVKGRFTISRDNAKNTVYLQMNSLKPEDTAVYYCNAGRESDDVYEGSQRIGQFDYWGQGTQVTVSS | low polyreactivity |
| QVQLVESGGGLVQAGGSLRLSCAASGYIFYPYTMGWYRPAPGKERELVAAITRSGSSTYYADSVKGRFTISRDNAKNTVYLQMNSLKPEDTAVYYCAAQRVNWYLSPSLYYYWGQGTQVTVSS | high polyreactivity |
| QVQLVESGGGLVQAGGSLRLSCAASGYIFYRNAMGWYRQAPGKEREFVAAISSSGVSTYYADSVKGRFTISRDNAKNTVYLQMNSLKPEDTAVYYCAASYLTWKRRYDYWGQGTQVTVSS | high polyreactivity |
| QVQLVESGGGLVQAGGSLRLSCAASGYIFYYNTMGWYRQAPGKERELVAAISSAGSTNYADSVKGRFTISRDNAKNTVYLQMNSRKPEDTAVYYCAARTRFSYRRNSYGYWGQGTQVNVSS | high polyreactivity |
